Article PMC6879491 (Nature Communications, 2019)
Blank lines part the entries; values can stand above or below the binder they belong to.

Key:
Assay in all cases: cell-bound Gaussia luciferase activity (equilibrium binding on intact cells); Jurkat (CD3, CD45) or U266 (HLA-A2) cells, 1 h at 37 °C with increasing concentrations of GpL fusion proteins, washed five times with ice-cold PBS; specific binding = total minus non-specific
Conditions in all cases: partners not purified
CD3 on Jurkat cells = molecular target: T1, CD3 on Jurkat cells (Homo sapiens (Jurkat, donor T cells), UniProt P07766)
T1 construct: CD3ε, the chain addressed by the diL2K scFv, on the surface of CD3-positive cells; On cells CD3ε stands within the TCR-CD3 complex; also called CD3ε; CD3 antigen; source: on donor T cells (functional assays)

CD45 on cells = molecular target: T2, CD45 on cells (Homo sapiens (Jurkat, THP-1), UniProt P08575)
T2 construct: CD45 on the surface of human cell lines; also called pan-hematopoietic lineage marker CD45; source: on THP-1 cells (functional assays)
T2 sequence (P08575 26-1306): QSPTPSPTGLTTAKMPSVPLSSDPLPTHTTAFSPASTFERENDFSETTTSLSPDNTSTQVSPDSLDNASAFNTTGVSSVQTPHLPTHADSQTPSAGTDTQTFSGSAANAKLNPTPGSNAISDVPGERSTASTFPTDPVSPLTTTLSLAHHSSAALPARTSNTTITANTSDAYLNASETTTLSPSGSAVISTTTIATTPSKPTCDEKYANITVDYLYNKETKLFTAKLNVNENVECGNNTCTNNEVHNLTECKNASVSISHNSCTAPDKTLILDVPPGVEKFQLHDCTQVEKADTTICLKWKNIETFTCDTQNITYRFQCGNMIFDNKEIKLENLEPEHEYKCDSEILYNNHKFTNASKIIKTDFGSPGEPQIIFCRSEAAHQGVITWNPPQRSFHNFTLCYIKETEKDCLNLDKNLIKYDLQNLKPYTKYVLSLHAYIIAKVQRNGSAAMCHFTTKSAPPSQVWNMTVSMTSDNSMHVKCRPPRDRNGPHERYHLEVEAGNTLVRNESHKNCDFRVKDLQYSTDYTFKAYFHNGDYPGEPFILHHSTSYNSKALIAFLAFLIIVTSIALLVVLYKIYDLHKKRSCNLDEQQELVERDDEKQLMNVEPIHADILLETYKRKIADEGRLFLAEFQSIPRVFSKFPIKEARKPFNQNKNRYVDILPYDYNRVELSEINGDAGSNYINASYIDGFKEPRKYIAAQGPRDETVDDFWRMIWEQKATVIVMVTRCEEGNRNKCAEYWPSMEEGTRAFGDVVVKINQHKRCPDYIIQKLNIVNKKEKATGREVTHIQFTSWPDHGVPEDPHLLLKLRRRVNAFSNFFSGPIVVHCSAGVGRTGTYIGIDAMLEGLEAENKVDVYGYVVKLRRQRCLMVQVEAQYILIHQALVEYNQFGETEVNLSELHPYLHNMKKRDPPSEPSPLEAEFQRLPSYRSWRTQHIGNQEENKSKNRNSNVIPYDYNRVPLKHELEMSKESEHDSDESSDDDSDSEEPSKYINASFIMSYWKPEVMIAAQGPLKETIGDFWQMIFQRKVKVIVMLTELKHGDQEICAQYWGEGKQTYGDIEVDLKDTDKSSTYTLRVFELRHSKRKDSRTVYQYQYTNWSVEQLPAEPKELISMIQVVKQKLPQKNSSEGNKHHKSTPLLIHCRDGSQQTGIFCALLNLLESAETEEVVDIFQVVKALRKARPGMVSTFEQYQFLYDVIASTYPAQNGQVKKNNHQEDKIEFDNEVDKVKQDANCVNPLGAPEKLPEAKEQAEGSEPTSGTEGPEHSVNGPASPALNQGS

HLA-A2 on cells = molecular target: T3, HLA-A2 on cells (Homo sapiens, HLA-A*02:01 (allele …, strain))
T3 construct: HLA-A2 on the surface of HLA-A2-positive human cell lines; source: on THP-1 cells (functional assays)

Kd (CD3 on Jurkat cells): 11.1 nM
B1: scFvαCD3-GpL (scFv, V domains shown)
VH: DVQLVQSGAEVKKPGASVKVSCKASGYTFTRYTMHWVRQAPGQGLEWIGYINPSRGYTNYADSVKGRFTITTDKSTSTAYMELSSLRSEDTATYYCARYYDDHYCLDYWGQGTTVTVSS
VL: DIVLTQSPATLSLSPGERATLSCRASQSVSYMNWYQQKPGKAPKRWIYDTSKVASGVPARFSGSGSGTDYSLTINSLEAEDAATYYCQQWSSNPLTFGGGTKVEIK
notes: scFv of the anti-CD3ε antibody diL2K (de-immunized version of mouse monoclonal L2K); as the anti-CD3 scFv of m3 (GenBank MN432903); Expression plasmid pCR3; also called scFvCD3-GpL; anti-CD3 scFv fused to Gaussia princeps luciferase; source: Hek293, electroporated, secreted, in supernatant

Kd (CD45 on cells): 11.8 nM
B2: scFvαCD45-GpL (scFv, V domains shown)
VH: QVQLVESGGGLVQPGGSLKLSCAASGFDFSRYWMSWVRQAPGKGLEWIGEINPTSSTINFTPSLKDKVFISRDNAKNTLYLQMSKVRSEDTALYYCARGNYYRYGDAMDYWGQGTSVTVSG
VL: DIVLTQSPASLAVSLGQRATISCRASKSVSTSGYSYLHWYQQKPGQPPKLLIYLASNLESGVPARFSGSGSGTDFTLNIHPVEEEDAATYYCQHSRELPFTFGSGTKLEIK
notes: as the scFv of m2 (GenBank MN432904); Expression plasmid pCR3; also called scFvCD45-GpL; anti-CD45 scFv fused to Gaussia princeps luciferase; source: Hek293, electroporated, secreted, in supernatant

Kd (HLA-A2 on cells): 0.9 nM
B3: scFvαHLA-A2-GpL (scFv, V domains shown)
VH: QVQLVQSGGGVVQPGGSLRVSCAASGVTLSDYGMHWVRQAPGKGLEWMAFIRNDGSDKYYADSVKGRFTISRDNSKKTVSLQMSSLRAEDTAVYYCAKNGESGPLDYWYFDLWGRGTLVTVSS
VL: DVVMTQSPSSLSASVGDRVTITCQASQDISNYLNWYQQKPGKAPKLLIYDASNLETGVPSRFSGSGSGTDFTFTISSLQPEDFATYYCQQYSSFPLTFGGGTKVDIK
notes: scFv of the human anti-HLA-A2/A28 antibody clone 3PF12 (VH GenBank AF163307, VL GenBank AF163308); as the scFv of m1 (GenBank MN432902); Expression plasmid pCR3; also called scFvHLA-A2-GpL; anti-HLA-A2 scFv fused to Gaussia princeps luciferase; source: Hek293, electroporated, secreted, in supernatant
